Data as given in publication doi:10.1101/2025.09.22.677689.

Target: preformed TPX2-NLS - importin α ΔIBB complex (mouse) (UniProt A2APB8)
Assay: pull-down; competition: GST-TPX2 NLS on magnetic glutathione beads first incubated with importin α ΔIBB, washed, then increasing concentrations of CFDP1 proteins in transfer buffer, 1 h at 4°C; SDS-PAGE with Coomassie stain or immunoblot

percent decrease of TPX2 bound importin α: 11%
Substance: CFDP1 basic C-terminal fragment (aa 150-295), HIS tagged (from UniProt O88271 150-295) (domain or fragment)
